From publication PMC6317822, “RSM1, an Arabidopsis MYB protein, interacts with HY5/HYH to modulate seed germination and seedling development in response to abscisic acid and salinity” (PLoS Genetics, 2018) come the findings set out here.

Data set [1] deals with T1, GST-HYH (Arabidopsis thaliana, UniProt Q8W191 1-149).
T1 sequence: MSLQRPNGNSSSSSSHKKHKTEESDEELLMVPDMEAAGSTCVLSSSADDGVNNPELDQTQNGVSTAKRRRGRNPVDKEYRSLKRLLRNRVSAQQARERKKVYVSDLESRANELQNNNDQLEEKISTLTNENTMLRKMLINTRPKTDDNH
The data set can be described thus: EMSA; EMSA: 2 ug protein in 20 uL, 10 mM Tris-HCl pH 7.5, 50 mM KCl, 1 mM DTT, 50 ng/uL poly(dI-dC), 25 C, 20 min; 4-6% native PAGE, 0.5x TBE. Conditions: protein: recombinant; tags: GST (pGEX-4T-1); chain copies: 2; label: biotin 5'.

Data set [2] deals with T2, His-HY5 (Arabidopsis thaliana, UniProt O24646 1-168).
T2 sequence: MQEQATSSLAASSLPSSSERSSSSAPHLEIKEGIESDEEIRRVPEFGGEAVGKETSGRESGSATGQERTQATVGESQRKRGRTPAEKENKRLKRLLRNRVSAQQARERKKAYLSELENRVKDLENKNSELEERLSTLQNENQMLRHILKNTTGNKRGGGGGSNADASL
The data set is described as above. Particulars: protein: recombinant; tags: His; chain copies: 2; label: biotin 5'.

Data set [3] addresses T1, GST-HYH. The data set can be described thus: competition; unlabeled competitor vs N1; EMSA: 2 ug protein in 20 uL, 10 mM Tris-HCl pH 7.5, 50 mM KCl, 1 mM DTT, 50 ng/uL poly(dI-dC), 25 C, 20 min; 4-6% native PAGE, 0.5x TBE. Conditions: protein: recombinant; tags: GST (pGEX-4T-1); chain copies: 2; label: unlabeled. On the technique in general: A gel shift assay detects complexes by their altered migration in electrophoresis.

Data set [4] addresses T2, His-HY5. The data set is described as above. Conditions: protein: recombinant; tags: His; chain copies: 2; label: unlabeled.
A further data set has as its target T3, His-RSM1 (Arabidopsis thaliana, UniProt Q9SIJ5 1-101).
T3 sequence: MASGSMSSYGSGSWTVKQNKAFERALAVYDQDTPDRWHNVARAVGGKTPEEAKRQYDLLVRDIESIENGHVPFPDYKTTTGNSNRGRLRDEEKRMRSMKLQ
The data set can be described thus: EMSA; EMSA: 2 ug protein in 20 uL, 10 mM Tris-HCl pH 7.5, 50 mM KCl, 1 mM DTT, 50 ng/uL poly(dI-dC), 25 C, 20 min; 4-6% native PAGE, 0.5x TBE. Particulars: protein: recombinant, tags: His (pET28a).

Data set [5] addresses T4, GST-HY5 (ELONGATED HYPOCOTYL 5) (Arabidopsis, UniProt O24646 1-168).
T4 construct: HY5 (ELONGATED HYPOCOTYL 5), bZIP transcription factor, Arabidopsis, At5g11260; the CDS cloned into the EcoRI and XhoI sites of pGEX-4T-1
T4 sequence (looked up): T2 sequence
The data set can be described thus: pull-down; 2 ug GST or GST fusion protein mixed with 2 ug His-RSM1 in 500 uL GST binding buffer (50 mM Tris-HCl pH 7.5, 100 mM NaCl, 0.1% Nonidet P-40), Glutathione Sepharose 4B beads, 4 C, 2 h; four washes; immunoblot with anti-GST or anti-His. Particulars: both partners purified. On the technique in general: A western blot detects proteins with antibodies after separation by electrophoresis.

For a further data set, the target named is T5, GST-HY5 (Arabidopsis thaliana, UniProt O24646 1-168).
T5 sequence: T2 sequence
The data set can be described thus: EMSA; EMSA: 2 ug protein in 20 uL, 10 mM Tris-HCl pH 7.5, 50 mM KCl, 1 mM DTT, 50 ng/uL poly(dI-dC), 25 C, 20 min; 4-6% native PAGE, 0.5x TBE. Conditions: protein: recombinant; tags: GST (pGEX-4T-1 in Methods); chain copies: 2; label: biotin 5' on both strands; blunt.

B1: RSM1 promoter C-box probe (WT) (dsDNA)
DNA 1: ATCTAGAGAATGACGTCATAACCACTAA
DNA 2: TTAGTGGTTATGACGTCATTCTCTAGAT
With B1, the binding result with GST-HYH [1] and in the data set with His-HY5 [2] was “binds” throughout.

B2: RSM1 promoter m1 competitor (dsDNA)
DNA 1: GCTGCAAGAATGACGTCATAACCACTAA
DNA 2: TTAGTGGTTATGACGTCATTCTTGCAGC
Take B2: the binding result in the data set with GST-HYH [3] and with His-HY5 [4] was “binds” throughout.

B3: RSM1 promoter m2 competitor (dsDNA)
DNA 1: ATCTAGAGAATAGTACTATAACCACTAA
DNA 2: TTAGTGGTTATAGTACTATTCTCTAGAT
On to B3, for which the binding result with GST-HYH [3] and with His-HY5 [4] was “no binding” in each case.

B4: RSM1 promoter P1 (dsDNA)
DNA 1: GAGACTTGTCCCTAACTTTCAACCAAAGACTTGTAATTTTCCGCGAGCAC
DNA 2: GTGCTCGCGGAAAATTACAAGTCTTTGGTTGAAAGTTAGGGACAAGTCTC
In the case of B4, the binding result with His-RSM1 (label: biotin 5') is given as “binds”.

B5: RSM1 promoter m3 competitor (dsDNA)
DNA 1: ATCTAGAGAATGACGTCATAACTGTCGG
DNA 2: CCGACAGTTATGACGTCATTCTCTAGAT
For the molecule B5, the binding result with GST-HYH [3] and with His-HY5 [4] was “binds” each time.

B6: RSM1 promoter P2 (dsDNA)
DNA 1: GTGAGCTTTGTGCTCTGATTAGAGACCAGACTGTTCCATGAATTAAGTAC
DNA 2: GTACTTAATTCATGGAACAGTCTGGTCTCTAATCAGAGCACAAAGCTCAC
Turning to B6, the binding result with His-RSM1 (label: biotin 5') is reported as “binds”.

B7: His-RSM1 (RADIALIS-LIKE SANT/MYB 1) (natural protein, Arabidopsis, UniProt Q9SIJ5 1-101, looked up)
chain: T3 sequence
notes: the CDS of RSM1 cloned into the BamHI and SacI sites of pET28a; also called MEE3; MATERNAL EFFECT EMBRYO ARREST 3; source: E. coli BL21 (pET28a-RSM1, 1 mM IPTG), purified with Ni-NTA beads
As to B7, in data set [5], the binding result is “binds”.

B8: ABI5 promoter probe (HY5 site) (dsDNA)
DNA 1: CCTTATGCAGTGAATAGTCCACGTGCACTCCCAATGGAAGTTCGGAATC
DNA 2: GATTCCGAACTTCCATTGGGAGTGCACGTGGACTATTCACTGCATAAGG
On to B8, for which the binding result with His-RSM1 (label: biotin 5' on both strands, blunt) is listed as “no binding”; in the data set with GST-HY5, “binds”.
